The data set deals with 3E10 lupus anti-DNA autoantibody (mouse). Put plainly: EMSA. The note with it: 0-10 uM 3E10, 30 min at 4 C, buffer, salt and pH not given (ref 28). (In general: A gel shift assay detects complexes by their altered migration in electrophoresis.)

With blunt-end duplex DNA, the Kd came out at 400 nM.

Regarding “duplex DNA with internal bubble (heterology)”, the Kd was 400 nM.

Take “duplex DNA with splayed single-stranded ends”: the Kd worked out at 200 nM.

Turning to duplex DNA with 5' single-stranded tail, the Kd amounted to 200 nM.

Consider single-stranded DNA, for which the Kd stood at 200 nM.

With duplex DNA with 3' single-stranded tail, the Kd was 200 nM.

A word on the Kd: it is a measure of binding affinity in units of concentration.

The record behind these values is PMC3713477.
